Data on two substances can be found in patent US20230087600A1.

In assay [1] the target is human IL-10 receptor (IL-10R) on T cells and B cells of human whole blood (human) (UniProt Q13651). The experiment in a line: cell-based or functional assay.
Assay [2] has as its target T1, mouse IL-10 receptor (IL-10R) on T cells and B cells of C57BL/6 mouse splenocytes (mouse) (UniProt Q61727).
T1 sequence (looked up) 1: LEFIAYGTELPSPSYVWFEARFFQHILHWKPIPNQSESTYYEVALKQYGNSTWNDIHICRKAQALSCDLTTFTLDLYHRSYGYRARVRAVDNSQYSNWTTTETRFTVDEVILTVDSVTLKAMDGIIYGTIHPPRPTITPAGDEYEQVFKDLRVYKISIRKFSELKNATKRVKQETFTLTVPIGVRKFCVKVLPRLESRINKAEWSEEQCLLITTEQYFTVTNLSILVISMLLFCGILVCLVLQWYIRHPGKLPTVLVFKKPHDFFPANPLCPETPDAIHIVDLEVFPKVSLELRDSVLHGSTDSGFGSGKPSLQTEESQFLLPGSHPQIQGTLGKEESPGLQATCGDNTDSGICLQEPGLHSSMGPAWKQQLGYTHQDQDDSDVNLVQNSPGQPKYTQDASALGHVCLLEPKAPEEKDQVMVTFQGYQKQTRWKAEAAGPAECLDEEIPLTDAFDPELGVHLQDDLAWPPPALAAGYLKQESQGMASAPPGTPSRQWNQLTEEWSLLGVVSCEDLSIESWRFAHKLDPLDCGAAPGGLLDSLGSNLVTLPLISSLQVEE
T1 sequence (looked up) 2: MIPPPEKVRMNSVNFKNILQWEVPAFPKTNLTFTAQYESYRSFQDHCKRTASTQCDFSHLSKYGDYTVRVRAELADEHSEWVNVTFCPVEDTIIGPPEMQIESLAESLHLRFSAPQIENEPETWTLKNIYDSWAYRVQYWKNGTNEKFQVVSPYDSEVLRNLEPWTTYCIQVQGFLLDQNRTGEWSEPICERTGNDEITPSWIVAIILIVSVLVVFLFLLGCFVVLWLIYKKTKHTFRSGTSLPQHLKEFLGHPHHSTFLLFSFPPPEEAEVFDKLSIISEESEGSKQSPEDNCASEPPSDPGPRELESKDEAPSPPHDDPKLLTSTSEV
The assay can be described thus: cell-based or functional assay.

Chain of human IL-10 receptor (IL-10R) on T cells and B cells of human whole blood (human) (Q13651 22-578, chain 1 of 2): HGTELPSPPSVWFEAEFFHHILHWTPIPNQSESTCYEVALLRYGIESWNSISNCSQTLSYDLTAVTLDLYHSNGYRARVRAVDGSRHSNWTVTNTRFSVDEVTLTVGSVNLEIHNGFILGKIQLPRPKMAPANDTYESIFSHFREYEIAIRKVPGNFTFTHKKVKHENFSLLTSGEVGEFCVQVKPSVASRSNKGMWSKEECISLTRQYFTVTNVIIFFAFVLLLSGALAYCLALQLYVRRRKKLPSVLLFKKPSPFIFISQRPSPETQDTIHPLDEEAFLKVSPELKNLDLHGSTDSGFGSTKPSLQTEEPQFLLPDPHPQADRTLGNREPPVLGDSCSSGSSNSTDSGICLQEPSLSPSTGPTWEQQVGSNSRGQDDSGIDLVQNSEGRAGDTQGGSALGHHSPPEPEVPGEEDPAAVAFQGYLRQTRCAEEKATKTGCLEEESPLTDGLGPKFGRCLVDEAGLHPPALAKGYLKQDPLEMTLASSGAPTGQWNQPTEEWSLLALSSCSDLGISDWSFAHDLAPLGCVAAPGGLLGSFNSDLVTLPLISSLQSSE
Chain of human IL-10 receptor (IL-10R) on T cells and B cells of human whole blood (human) (Q08334 20-325, chain 2 of 2, further chain): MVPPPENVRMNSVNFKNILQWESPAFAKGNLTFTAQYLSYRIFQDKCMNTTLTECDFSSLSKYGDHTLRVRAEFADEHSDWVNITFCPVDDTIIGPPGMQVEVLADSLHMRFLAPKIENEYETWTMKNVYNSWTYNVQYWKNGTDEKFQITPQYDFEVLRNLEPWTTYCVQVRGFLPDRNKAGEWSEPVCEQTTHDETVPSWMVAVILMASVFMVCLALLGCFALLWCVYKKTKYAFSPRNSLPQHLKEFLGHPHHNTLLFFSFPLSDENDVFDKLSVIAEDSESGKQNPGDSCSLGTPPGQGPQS

In assay [1], “5KPEG-hIL-10 (human IL-10 conjugated to 5 KD PEG) (from UniProt P22301 19-178) (ligand)” showed an STAT3 phosphorylation (pY705), flow cytometry, CD3+ T cells in human whole blood, EC50 of 167 pM and an STAT3 phosphorylation (pY705), flow cytometry, CD19+ B cells in human whole blood, EC50 of 347 pM.
For “mIgG1-D265A-Fc-(G4S)4-mIL-10 (Fc fusion)”, in assay [2], the STAT3 phosphorylation (pY705), flow cytometry, B cells of C57BL/6 mouse splenocytes (CD19 + B cells), EC50 came to 125 pM and the STAT3 phosphorylation (pY705), flow cytometry, CD3+ T cells of C57BL/6 mouse splenocytes, EC50 is 441 pM.
